B1: Ankyrin-2, residues 3571 to 3650; numbered along this chain, Q01484 (parent)
chain: ERLAYIADHLGFSWTELARELDFTEEQIHQIRIENPNSLQDQSHALLKYWLERDGKHATDTNLVECLTKINRMDIVHLME

± gives the uncertainty stated by the source.

This note sets out measurements from the Human Domainome abundance scans (Beltran et al. 2025).

The variants in the data set derive from B1. The data set can be described thus: abundance fitness (aPCA) (normalised: wild type 0, dead -1); higher = more abundant; growth selection in yeast, the domain comes from the species named. To be noted: Homo sapiens.
Take C66H: the abundance fitness turned out to be 0.009 ± 0.2. Consider C66F, for which the abundance fitness was -0.035 ± 0.1. Take C66D: the abundance fitness is -0.363 ± 0.15.

On to C66N, for which the abundance fitness is -0.092 ± 0.17. With C66S, the abundance fitness is -0.013 ± 0.056.

Turning to C66A, the abundance fitness is -0.016 ± 0.059. Regarding S13F, the abundance fitness was -0.036 ± 0.1. As to S13Q, the abundance fitness was found to be 0.059 ± 0.17. With S13K, the abundance fitness was -0.224 ± 0.14. Take S13L: the abundance fitness was -0.306 ± 0.11. Take S13R: the abundance fitness is -0.077 ± 0.084. Turning to S13W, the abundance fitness was -0.17 ± 0.094. As for S13P, the abundance fitness was -0.291 ± 0.11. For the variant A7R, the abundance fitness was 0.087 ± 0.48. The same measure for A7E: -0.265 ± 0.21.

As to A7G, the abundance fitness was 0.12 ± 0.28. As for A4T, the abundance fitness worked out at 0.109 ± 0.048. Regarding A4P, the abundance fitness is -0.071 ± 0.029. Take A4L: the abundance fitness was -0.058 ± 0.04.

As to A4D, the abundance fitness came out at 0.039 ± 0.084. The same measure for A4W: -0.11 ± 0.061. The result for M73T reads -0.092 ± 0.16; that for P36N, 0.253 ± 0.43. The result for P36Y reads -0.221 ± 0.13. As for P36S, the abundance fitness is -0.117 ± 0.063. P36Q: the abundance fitness is -0.123 ± 0.091. As for P36G, the abundance fitness was -0.045 ± 0.047. In the case of V64M, the abundance fitness is 0.007 ± 0.12.

As for V64F, the abundance fitness is -0.073 ± 0.1. As for V64P, the abundance fitness was -0.266 ± 0.076.

For V64L, the abundance fitness was -0.016 ± 0.057. As to S43A, the abundance fitness was -0.281 ± 0.14. S43P: the abundance fitness was -0.32 ± 0.18. Take S43L: the abundance fitness was -0.216 ± 0.1. In the case of T59W, the abundance fitness was -0.099 ± 0.062.

Take T59H: the abundance fitness is -0.055 ± 0.08. For T59E, the abundance fitness is -0.069 ± 0.088. On to W14F, for which the abundance fitness is -0.199 ± 0.17. Turning to W14C, the abundance fitness is -0.63 ± 0.13. The result for W14M reads -0.394 ± 0.18; that for W14P, -0.958 ± 0.19. In the case of W14A, the abundance fitness was -0.572 ± 0.089. The same measure for L46Y: -0.336 ± 0.26; for L46T: -0.127 ± 0.2. As for E34T, the abundance fitness was -0.049 ± 0.069. As for E34H, the abundance fitness was -0.048 ± 0.14. In the case of E34I, the abundance fitness is -0.042 ± 0.15. The same measure for E20W: -0.156 ± 0.093; for E20T: -0.025 ± 0.072. The result for E20D reads 0.018 ± 0.24; that for E20F, -0.098 ± 0.22.

As for E20A, the abundance fitness was -0.118 ± 0.11. With E20Q, the abundance fitness is -0.169 ± 0.15.

Regarding E20M, the abundance fitness was 0.089 ± 0.086.

As for L10G, the abundance fitness was -0.704 ± 0.051. The result for L10C reads -0.184 ± 0.11; that for L10K, -0.911 ± 0.37; that for L10A, -0.64 ± 0.099. L10M: the abundance fitness was -0.205 ± 0.11.

On to Q42C, for which the abundance fitness came out at 0.007 ± 0.17. Take L21N: the abundance fitness was -0.149 ± 0.45.

L21M: the abundance fitness is -0.107 ± 0.088.

Turning to L21I, the abundance fitness is -0.268 ± 0.17. For L21G, the abundance fitness is -0.072 ± 0.056. Consider L21V, for which the abundance fitness was -0.225 ± 0.077. L21K: the abundance fitness is -0.32 ± 0.098.

Turning to I75A, the abundance fitness amounted to 0.011 ± 0.17. Turning to I75S, the abundance fitness was -0.54 ± 0.45. The result for Q40A reads -0.104 ± 0.15; that for Q40T, -0.033 ± 0.13. The result for Q40G reads -0.146 ± 0.095; that for Q40E, 0.051 ± 0.18; that for K69L, -0.059 ± 0.042. As for K69C, the abundance fitness was -0.094 ± 0.1. Regarding K69F, the abundance fitness was -0.126 ± 0.1.

Consider K69M, for which the abundance fitness is -0.068 ± 0.069.

As to K69N, the abundance fitness turned out to be 0.012 ± 0.12. The same measure for K69I: -0.121 ± 0.15; for K69D: -0.094 ± 0.1. The same measure for N37H: -0.021 ± 0.17. N37P: the abundance fitness was -0.249 ± 0.082. The result for N37C reads -0.064 ± 0.1; that for G11L, -0.117 ± 0.058. As to G11I, the abundance fitness is -0.271 ± 0.28. Regarding I33Y, the abundance fitness was -0.027 ± 0.15.

Turning to I33D, the abundance fitness was -0.105 ± 0.14.

As to I33A, the abundance fitness was -0.034 ± 0.07. The result for I33N reads -0.223 ± 0.12. For the variant I33K, the abundance fitness is 0.058 ± 0.11. For H29K, the abundance fitness is -0.004 ± 0.18.

Regarding H29I, the abundance fitness is -0.082 ± 0.079.

On to H29R, for which the abundance fitness is -0.111 ± 0.06.

Consider H29S, for which the abundance fitness is -0.041 ± 0.056. The result for H29N reads -0.108 ± 0.25. The result for T15G reads -0.042 ± 0.06. With T15L, the abundance fitness came out at 0.036 ± 0.061. Take T15W: the abundance fitness was -0.058 ± 0.077.

T15N: the abundance fitness is -0.038 ± 0.21. The same measure for T15F: -0.277 ± 0.12; for T15E: -0.185 ± 0.15; for L63I: 0.07 ± 0.11. Consider L63P, for which the abundance fitness is -0.651 ± 0.071. As for L63E, the abundance fitness is -0.657 ± 0.12. In the case of L63F, the abundance fitness was -0.143 ± 0.12. The same measure for L63K: -0.677 ± 0.32; for E26Q: -0.129 ± 0.17; for E26A: -0.087 ± 0.068. With E26K, the abundance fitness amounted to 0.035 ± 0.1. With E26D, the abundance fitness was -0.053 ± 0.12.

Consider E26L, for which the abundance fitness is -0.057 ± 0.059. For the variant E26G, the abundance fitness was -0.059 ± 0.046. As for K48E, the abundance fitness was -0.027 ± 0.19.

Turning to K48N, the abundance fitness was found to be 0.028 ± 0.14. For the variant K48L, the abundance fitness is 0.02 ± 0.068. The same measure for K48M: -0.2 ± 0.17; for H9Y: -0.409 ± 0.4.

For H9G, the abundance fitness is -0.025 ± 0.2. Consider H9L, for which the abundance fitness is -0.02 ± 0.2.

On to T24P, for which the abundance fitness is -0.138 ± 0.059.

Regarding T24S, the abundance fitness was -0.025 ± 0.054.

On to T24H, for which the abundance fitness is -0.075 ± 0.28. The result for T24R reads -0.027 ± 0.069. The result for T24A reads -0.053 ± 0.061; that for R2D, 0.107 ± 0.35.

Regarding R2S, the abundance fitness was determined as 0.026 ± 0.17. As for Q30M, the abundance fitness amounted to 0.008 ± 0.27. Consider Q30R, for which the abundance fitness worked out at 0 ± 0.048. As for Q30V, the abundance fitness was -0.073 ± 0.082.

Q30C: the abundance fitness is -0.044 ± 0.1. The result for Q30H reads -0.045 ± 0.13. The same measure for G55L: -0.017 ± 0.031; for G55P: -0.035 ± 0.036.

Take G55E: the abundance fitness is -0.033 ± 0.044. Consider G55A, for which the abundance fitness is -0.013 ± 0.034.

Turning to G55Y, the abundance fitness is -0.052 ± 0.066. On to G55W, for which the abundance fitness was -0.112 ± 0.063. With L3M, the abundance fitness worked out at 0.028 ± 0.095.

As to L3G, the abundance fitness is -0.181 ± 0.11. For the variant L3P, the abundance fitness is -0.215 ± 0.064.

As to L3C, the abundance fitness is -0.086 ± 0.22. Consider L3E, for which the abundance fitness is -0.289 ± 0.23. R32W: the abundance fitness was -0.25 ± 0.22.

For the variant R32F, the abundance fitness is -0.088 ± 0.17. Consider R32H, for which the abundance fitness came out at 0.034 ± 0.097. Turning to R32T, the abundance fitness is -0.127 ± 0.082. Regarding R32S, the abundance fitness is -0.059 ± 0.061.

As for R32P, the abundance fitness was -0.293 ± 0.047. For A45L, the abundance fitness is -0.002 ± 0.13.

On to A45C, for which the abundance fitness is -0.189 ± 0.25. For the variant S38V, the abundance fitness is -0.092 ± 0.055. The same measure for S38E: -0.092 ± 0.11. Take E25D: the abundance fitness was 0.016 ± 0.15. Take E25F: the abundance fitness is -0.199 ± 0.12.

Take E25Q: the abundance fitness is -0.01 ± 0.11. Turning to E25V, the abundance fitness was -0.064 ± 0.056. As for E25R, the abundance fitness is -0.096 ± 0.062.

Consider E25K, for which the abundance fitness is 0.15 ± 0.24. As for E65T, the abundance fitness stood at 0.031 ± 0.057.

With E65H, the abundance fitness is -0.059 ± 0.13.

Turning to E65W, the abundance fitness was -0.246 ± 0.075. On to E65M, for which the abundance fitness was -0.243 ± 0.096.

As to E65I, the abundance fitness stood at 0.143 ± 0.15. Consider E65K, for which the abundance fitness was -0.086 ± 0.098.

For the variant E65V, the abundance fitness was -0.099 ± 0.058.

With I70A, the abundance fitness is -0.099 ± 0.07. Take I70H: the abundance fitness was -0.334 ± 0.17. With I70V, the abundance fitness is -0.035 ± 0.14.
